Experimental data as given in publication PMC3961177, “Photoactivated UVR8-COP1 Module Determines Photomorphogenic UV-B Signaling Output in Arabidopsis” (PLoS Genetics, 2014).

Experiments:
[1] = biological target: T1, LexA fused wild-type UVR8 (UV … LOCUS 8) (Arabidopsis thaliana), Q9FN03; test: SDS-PAGE of unboiled extracts with immunoblot; total protein extracts of yeast EGY48 expressing LexA-UVR8, kept on ice under −UV-B or +UV-B for 20 min, loaded without boiling, anti-LexA immunoblot; conditions: remark: other sources report otherwise
T1 chain: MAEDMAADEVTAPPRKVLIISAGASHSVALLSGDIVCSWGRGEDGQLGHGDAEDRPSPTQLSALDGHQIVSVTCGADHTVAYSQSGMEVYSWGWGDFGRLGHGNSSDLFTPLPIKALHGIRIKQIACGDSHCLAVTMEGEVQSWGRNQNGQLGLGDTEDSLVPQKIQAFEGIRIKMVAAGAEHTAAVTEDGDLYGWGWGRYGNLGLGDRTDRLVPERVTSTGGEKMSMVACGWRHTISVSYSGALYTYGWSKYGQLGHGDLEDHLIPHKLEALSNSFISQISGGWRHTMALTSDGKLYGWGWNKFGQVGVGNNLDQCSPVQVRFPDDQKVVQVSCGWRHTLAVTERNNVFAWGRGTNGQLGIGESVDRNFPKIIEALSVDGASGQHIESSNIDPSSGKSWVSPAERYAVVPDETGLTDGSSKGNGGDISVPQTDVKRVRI

[2] = biological target: the molecule itself; test: SDS-PAGE of unboiled extracts with immunoblot; total protein extracts of 4-day-old transgenic seedlings grown under −UV-B or +UV-B, extracts kept on ice under the same condition for 30 min, loaded without boiling, anti-GFP immunoblot
[3] = biological target: T2, YFP-UVR8^WT (proUVR8-YFP-UVR8/uvr8-6) (Arabidopsis thaliana), Q9FN03; test: as above; conditions: remark: other sources report otherwise
T2 chain: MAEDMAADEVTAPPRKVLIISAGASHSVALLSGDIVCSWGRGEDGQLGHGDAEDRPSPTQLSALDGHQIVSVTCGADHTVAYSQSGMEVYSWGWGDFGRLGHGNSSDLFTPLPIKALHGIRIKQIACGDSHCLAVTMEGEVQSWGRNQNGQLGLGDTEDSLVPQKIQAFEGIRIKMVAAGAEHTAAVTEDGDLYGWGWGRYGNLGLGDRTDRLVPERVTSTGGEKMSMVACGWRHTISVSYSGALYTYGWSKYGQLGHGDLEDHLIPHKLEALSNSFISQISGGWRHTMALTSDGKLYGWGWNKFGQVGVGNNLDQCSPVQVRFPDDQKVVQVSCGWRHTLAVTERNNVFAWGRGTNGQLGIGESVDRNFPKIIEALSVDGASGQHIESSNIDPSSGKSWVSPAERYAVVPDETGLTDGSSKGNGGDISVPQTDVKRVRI

[4] = biological target: the molecule itself; test: SDS-PAGE of unboiled extracts with immunoblot; total protein extracts of yeast EGY48 expressing LexA-UVR8, kept on ice under −UV-B or +UV-B for 20 min, loaded without boiling, anti-LexA immunoblot

B1: LexA fused wild-type UVR8 (UV … LOCUS 8), Q9FN03 1-440 (natural protein)
chain: MAEDMAADEVTAPPRKVLIISAGASHSVALLSGDIVCSWGRGEDGQLGHGDAEDRPSPTQLSALDGHQIVSVTCGADHTVAYSQSGMEVYSWGWGDFGRLGHGNSSDLFTPLPIKALHGIRIKQIACGDSHCLAVTMEGEVQSWGRNQNGQLGLGDTEDSLVPQKIQAFEGIRIKMVAAGAEHTAAVTEDGDLYGWGWGRYGNLGLGDRTDRLVPERVTSTGGEKMSMVACGWRHTISVSYSGALYTYGWSKYGQLGHGDLEDHLIPHKLEALSNSFISQISGGWRHTMALTSDGKLYGWGWNKFGQVGVGNNLDQCSPVQVRFPDDQKVVQVSCGWRHTLAVTERNNVFAWGRGTNGQLGIGESVDRNFPKIIEALSVDGASGQHIESSNIDPSSGKSWVSPAERYAVVPDETGLTDGSSKGNGGDISVPQTDVKRVRI
For B1, the stoichiometry N [1] was 2.

B2: YFP-UVR8^W285F (proUVR8-YFP-UVR8^W285F/uvr8-6) (natural protein, Arabidopsis thaliana, UniProt Q9FN03 1-440, looked up)
chain: MAEDMAADEVTAPPRKVLIISAGASHSVALLSGDIVCSWGRGEDGQLGHGDAEDRPSPTQLSALDGHQIVSVTCGADHTVAYSQSGMEVYSWGWGDFGRLGHGNSSDLFTPLPIKALHGIRIKQIACGDSHCLAVTMEGEVQSWGRNQNGQLGLGDTEDSLVPQKIQAFEGIRIKMVAAGAEHTAAVTEDGDLYGWGWGRYGNLGLGDRTDRLVPERVTSTGGEKMSMVACGWRHTISVSYSGALYTYGWSKYGQLGHGDLEDHLIPHKLEALSNSFISQISGGFRHTMALTSDGKLYGWGWNKFGQVGVGNNLDQCSPVQVRFPDDQKVVQVSCGWRHTLAVTERNNVFAWGRGTNGQLGIGESVDRNFPKIIEALSVDGASGQHIESSNIDPSSGKSWVSPAERYAVVPDETGLTDGSSKGNGGDISVPQTDVKRVRI
notes: UV … LOCUS 8 (UVR8), Arabidopsis thaliana; The N-terminal place of YFP is read from the construct's name; source: transgenic Arabidopsis (native UVR8 promoter, uvr8-6 background), 4-day-old seedlings, in total protein extract; not shown: YFP, N-terminal, kept
In the case of B2, the “stoichiometry N” value [2] is reported as 2.

B3: YFP-UVR8^WT (proUVR8-YFP-UVR8/uvr8-6), Q9FN03 1-440 (natural protein)
chain: MAEDMAADEVTAPPRKVLIISAGASHSVALLSGDIVCSWGRGEDGQLGHGDAEDRPSPTQLSALDGHQIVSVTCGADHTVAYSQSGMEVYSWGWGDFGRLGHGNSSDLFTPLPIKALHGIRIKQIACGDSHCLAVTMEGEVQSWGRNQNGQLGLGDTEDSLVPQKIQAFEGIRIKMVAAGAEHTAAVTEDGDLYGWGWGRYGNLGLGDRTDRLVPERVTSTGGEKMSMVACGWRHTISVSYSGALYTYGWSKYGQLGHGDLEDHLIPHKLEALSNSFISQISGGWRHTMALTSDGKLYGWGWNKFGQVGVGNNLDQCSPVQVRFPDDQKVVQVSCGWRHTLAVTERNNVFAWGRGTNGQLGIGESVDRNFPKIIEALSVDGASGQHIESSNIDPSSGKSWVSPAERYAVVPDETGLTDGSSKGNGGDISVPQTDVKRVRI
For B3, the stoichiometry N [3] was 2.

B4: LexA fused UVR8^W285F (natural protein, Arabidopsis thaliana, UniProt Q9FN03 1-440, looked up)
chain: MAEDMAADEVTAPPRKVLIISAGASHSVALLSGDIVCSWGRGEDGQLGHGDAEDRPSPTQLSALDGHQIVSVTCGADHTVAYSQSGMEVYSWGWGDFGRLGHGNSSDLFTPLPIKALHGIRIKQIACGDSHCLAVTMEGEVQSWGRNQNGQLGLGDTEDSLVPQKIQAFEGIRIKMVAAGAEHTAAVTEDGDLYGWGWGRYGNLGLGDRTDRLVPERVTSTGGEKMSMVACGWRHTISVSYSGALYTYGWSKYGQLGHGDLEDHLIPHKLEALSNSFISQISGGFRHTMALTSDGKLYGWGWNKFGQVGVGNNLDQCSPVQVRFPDDQKVVQVSCGWRHTLAVTERNNVFAWGRGTNGQLGIGESVDRNFPKIIEALSVDGASGQHIESSNIDPSSGKSWVSPAERYAVVPDETGLTDGSSKGNGGDISVPQTDVKRVRI
notes: UV … LOCUS 8 (UVR8), Arabidopsis thaliana; also called mUVR8; source: yeast strain EGY48, LexA fusion; in total protein extract (dimer/monomer assay) and yeast two-hybrid fusion
With B4 the “stoichiometry N” value [4] was 2.
